This note sets out measurements from PMC8276246, “Unlimited Cooperativity of Betatectivirus SSB, a Novel DNA Binding Protein Related to an Atypical Group of SSBs From Protein-Primed Replicating Bacterial Viruses”.

The subject of data set [1] is B35SSB (Bacillus phage Bam35 (betatectivirus)). As to the kind of experiment: EMSA. The note with it: EMSA: 50 mM Tris-HCl pH 7.5, 50 mM NaCl, 1 mM DTT, 4% glycerol, 0.1 mg/ml BSA, 0.05% Tween 20, 1 mM EDTA, 10 min at 4 C, 2 nM labeled probe.
The target in data set [2] is EcoSSB (Escherichia coli, UniProt P0AGE0 1-178). The data set can be described thus: EMSA; 1 uM protein; EMSA: 50 mM Tris-HCl pH 7.5, 50 mM NaCl, 1 mM DTT, 4% glycerol, 0.1 mg/ml BSA, 0.05% Tween 20, 1 mM EDTA, 10 min at 4 C; 2 nM labeled probe. The following applies: chain copies: 4; label: 5' 32P.
Data set [3] addresses T1, Φ29 terminal protein (Φ29TP) (Bacillus phage Φ29, UniProt P03681 1-266).
T1 sequence: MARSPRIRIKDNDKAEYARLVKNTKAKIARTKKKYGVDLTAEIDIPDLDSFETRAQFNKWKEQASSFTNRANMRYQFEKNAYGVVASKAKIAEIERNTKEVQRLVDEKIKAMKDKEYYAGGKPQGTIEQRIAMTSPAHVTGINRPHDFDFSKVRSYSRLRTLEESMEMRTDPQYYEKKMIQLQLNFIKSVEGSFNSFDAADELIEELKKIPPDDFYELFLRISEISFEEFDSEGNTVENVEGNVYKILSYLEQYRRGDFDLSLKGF
The data set can be described thus: EMSA; 20 nM protein; EMSA: 50 mM Tris-HCl pH 7.5, 50 mM NaCl, 1 mM DTT, 4% glycerol, 0.1 mg/ml BSA, 0.05% Tween 20, 1 mM EDTA, 10 min at 4 C; 2 nM labeled probe. The following applies: label: 5' 32P on strand 1; blunt.

Sequence of EcoSSB (P0AGE0 whole entry): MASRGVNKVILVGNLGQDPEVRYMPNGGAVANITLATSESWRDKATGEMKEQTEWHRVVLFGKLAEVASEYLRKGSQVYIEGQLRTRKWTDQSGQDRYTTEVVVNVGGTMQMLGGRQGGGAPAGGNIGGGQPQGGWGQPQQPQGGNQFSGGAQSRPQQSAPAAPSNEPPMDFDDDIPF

“ACTGGCCGTCGTTCTATTGTACTCACTGTGATC [33-mer]” gave a binding signal in data set [1] (500 nM protein (25% bound at 250 nM)) of 50 % bound.
With “GGCCCATATGTACCCATACGACGTCCCAGACTACGCTGGGACGGGGAGCGGGGCCAGTAAACTACTGACTGCGCAAGAGG [80-mer]”, the binding signal in data set [1] (250 nM protein) is 70 % bound.
In data set [1] (1 uM protein, minor smear), GATCACAGTGAGTAC [15-mer] yielded a binding signal of under 10 % bound.
“GAAAAUAAAAAUAAACUGGACAAUUAAGGAUCCUGUACAAGUCGACGCGG [RNA-50mer]” had a binding signal in data set [1] (5 uM protein) of 10 % bound.
For GAAAAUAAAAAUAAACUGGACAAUUAAGGAUCCUGUACAAGUCGACGCGG (ssRNA) [RNA-50mer], in data set [2], the binding result is “binds”.
GAAAATAAAAATAAACTGGACAATTAAGGATCCTGTACAAGTCGACGCGG (ssDNA) [50-mer]: in data set [2], the binding result is given as “binds”.

B1: 50-mer dsDNA (dsDNA)
DNA 1: GAAAATAAAAATAAACTGGACAATTAAGGATCCTGTACAAGTCGACGCGG
DNA 2: CCGCGTCGACTTGTACAGGATCCTTAATTGTCCAGTTTATTTTTATTTTC
B1: the binding result in data set [3] is listed as “binds”.
